Biological target: RSV fusion (F) protein ectodomain (Human respiratory syncytial virus; …, UniProt P03420)
Assay: SPR

Sequence of RSV fusion (F) protein ectodomain (P03420 26-524): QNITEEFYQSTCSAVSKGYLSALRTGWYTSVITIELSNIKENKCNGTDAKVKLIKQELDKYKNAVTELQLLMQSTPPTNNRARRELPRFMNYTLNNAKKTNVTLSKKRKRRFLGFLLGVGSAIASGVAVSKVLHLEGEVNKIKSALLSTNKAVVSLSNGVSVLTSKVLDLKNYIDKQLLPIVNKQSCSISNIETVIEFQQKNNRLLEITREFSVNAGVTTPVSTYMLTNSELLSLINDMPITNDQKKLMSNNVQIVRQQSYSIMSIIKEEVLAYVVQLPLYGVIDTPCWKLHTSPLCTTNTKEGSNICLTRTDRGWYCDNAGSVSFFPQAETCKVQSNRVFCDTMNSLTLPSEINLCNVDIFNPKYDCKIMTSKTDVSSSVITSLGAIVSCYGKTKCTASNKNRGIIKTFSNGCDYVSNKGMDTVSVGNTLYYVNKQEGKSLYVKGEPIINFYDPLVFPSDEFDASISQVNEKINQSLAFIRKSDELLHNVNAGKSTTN

B1: Fab19 (fully matured, wild-type) (Fab, V domains shown)
VH: VQLLEVESGGGLRPGGSLRLSCAASGTTLSGYTMHWVRQAPGKGLEWVSSITGGSNFINYSDSVKGRFTISRDNAKNSLYLQMNSLTAEDTAVYYCATAPIAPPYFDHWGQGTLVTVSS
VL: ELTQSPSSLSASVGDRVTITCRATQSVSNFLNWYQQKPGEAPTLLIYDASTSQSGVPSRFSGSGSGMDFSLTISSLQPEDLAMYYCQASINTPLFGGGTRIDMR
For B1, the koff was 0.0057 s⁻¹.
